Assay [1] concerns the target T1, human bradykinin B1 receptor (human, UniProt P46663 1-353).
T1 sequence (looked up): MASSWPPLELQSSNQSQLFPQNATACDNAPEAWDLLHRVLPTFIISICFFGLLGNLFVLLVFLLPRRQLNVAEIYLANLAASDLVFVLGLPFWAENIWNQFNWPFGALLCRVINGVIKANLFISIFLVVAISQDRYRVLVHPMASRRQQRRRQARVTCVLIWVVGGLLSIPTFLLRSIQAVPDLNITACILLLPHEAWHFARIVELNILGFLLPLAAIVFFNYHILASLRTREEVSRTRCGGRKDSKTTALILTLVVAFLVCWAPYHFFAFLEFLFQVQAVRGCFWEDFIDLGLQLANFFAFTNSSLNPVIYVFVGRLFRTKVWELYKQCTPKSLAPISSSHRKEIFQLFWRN
The experiment in a line: cell-based or functional assay.

Assay [2] addresses T2, human bradykinin B2 receptor (human, UniProt P30411 1-391).
T2 sequence (looked up): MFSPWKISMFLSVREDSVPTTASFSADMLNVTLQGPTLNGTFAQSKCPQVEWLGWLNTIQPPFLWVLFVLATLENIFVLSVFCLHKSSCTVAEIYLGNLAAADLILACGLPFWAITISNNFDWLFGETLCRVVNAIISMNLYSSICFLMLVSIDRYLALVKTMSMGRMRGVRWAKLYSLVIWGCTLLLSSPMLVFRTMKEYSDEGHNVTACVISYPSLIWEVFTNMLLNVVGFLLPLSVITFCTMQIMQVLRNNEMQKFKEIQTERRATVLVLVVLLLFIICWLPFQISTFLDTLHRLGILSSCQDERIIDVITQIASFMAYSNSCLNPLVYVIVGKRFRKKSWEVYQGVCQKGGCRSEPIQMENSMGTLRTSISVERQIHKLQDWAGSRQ
The assay can be described thus: cell-based or functional assay.

The target in assay [3] is T1, human bradykinin B1 receptor. The assay can be described thus: cell-based or functional assay. This is another data set of the same source.
For assay [4] the target is unchanged. The assay can be described thus: binding affinity (Ki) at the human B1 receptor; assay format not described.

Non-standard residues stand in square brackets, D forms with d. No end group written: not given here. Gly(cPent) = N[C@H](C(=O)O)C1CCCC1; Hyp = O=C(O)[C@@H]1C[C@@H](O)CN1; dTic = O=C(O)[C@H]1Cc2ccccc2CN1 Bounds are passed on as bounds.

With KKRP[Hyp]G[Gly(cPent)]S[dTic][Gly(cPent)] [SEQ ID NO:36], the “IC50 in the hB1 aequorin assay” value in assay [1] is 3 nM. Moreover, the “antagonist activity in the hB2 FLIPR assay” value (shortened to “antagonist activity”) in assay [2] is greater than 10 µM.
With KKRP[Hyp]G[Gly(cPent)]S[dTic][Gly(cPent)] (also: conjugated to PEG, size, linker and site not given here) [the same peptide (SEQ ID NO:36) conjugated to PEG], the “fold increase in IC50 in the hB1 aequorin assay against the unconjugated peptide” value in assay [1] is roughly 10 fold. In addition, the “antagonist activity” value in assay [2] is greater than 10 µM.
For the molecule Ac-KKRP[Hyp]G[Gly(cPent)]S[dTic][Gly(cPent)] [SEQ ID NO: 37], the hB1 IC50 (nM), functional potency in assay [3] was determined as 1 nM. Also, in assay [2], the “antagonist activity” value is greater than 10 µM. In assay [4], the inhibition constant (Ki) amounted to 0.8 nM.

Broadly, the Ki is the equilibrium dissociation constant of an inhibitor or competing ligand from its target.
